Data set [1] deals with T1, MAB21L1 (Homo sapiens, UniProt Q13394).
T1 construct: full length
T1 sequence (Q13394 1-359): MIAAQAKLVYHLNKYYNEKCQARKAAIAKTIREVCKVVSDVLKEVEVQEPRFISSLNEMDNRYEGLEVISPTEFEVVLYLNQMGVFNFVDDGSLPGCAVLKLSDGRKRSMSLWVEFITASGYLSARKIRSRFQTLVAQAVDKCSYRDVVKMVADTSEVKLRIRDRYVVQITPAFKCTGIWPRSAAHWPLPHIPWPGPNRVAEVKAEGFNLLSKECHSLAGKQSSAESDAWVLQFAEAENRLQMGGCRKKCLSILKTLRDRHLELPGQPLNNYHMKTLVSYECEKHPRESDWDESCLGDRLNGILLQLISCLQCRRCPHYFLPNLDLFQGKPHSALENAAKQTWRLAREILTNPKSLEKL
Nature of the data set: ITC, thermal shift. In kind it is binding. (In general: ITC needs no label: the signal is the heat of the interaction.)

Data set [2] addresses T1, MAB21L1. Nature of the data set: co-crystal structure ([…] Å), ITC, thermal shift. The format is binding.
For data set [3], the target named is T2, MAB21L1 (Homo sapiens, UniProt Q13394 1-359).
T2 sequence: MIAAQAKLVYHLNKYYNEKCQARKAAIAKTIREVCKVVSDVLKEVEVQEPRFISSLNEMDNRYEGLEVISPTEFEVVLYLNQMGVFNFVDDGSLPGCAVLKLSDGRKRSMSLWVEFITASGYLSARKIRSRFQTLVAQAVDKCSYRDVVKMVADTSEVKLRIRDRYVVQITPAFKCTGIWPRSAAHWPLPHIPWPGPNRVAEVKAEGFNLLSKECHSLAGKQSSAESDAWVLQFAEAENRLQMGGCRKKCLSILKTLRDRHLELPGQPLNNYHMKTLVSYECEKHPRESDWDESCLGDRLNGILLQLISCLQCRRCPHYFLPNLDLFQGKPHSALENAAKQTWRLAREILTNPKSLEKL
Nature of the data set: EMSA; 0.5 uM nucleic acid; EMSA: 20 mM Tris pH 8.0, 200 mM NaCl, 30 min on ice, 1% agarose gel, Gel-Red stain. The following applies: protein: recombinant; tags: His-MBP tag removed by TEV; label: none (Gel-Red stain); single strand. For orientation: In EMSA bound probe runs differently from free probe, usually more slowly.

Data set [4] concerns the target T2, MAB21L1. Nature of the data set: EMSA; 1 uM nucleic acid; EMSA: 20 mM Tris pH 8.0, 200 mM NaCl, 30 min on ice, 1% agarose gel, Gel-Red stain. The settings on record: protein: recombinant; tags: His-MBP tag removed by TEV; label: none (Gel-Red stain); blunt.

A word on the Kd: it is the free concentration of one partner at which half of the binding sites on the other are occupied at equilibrium, for simple one-to-one binding.

Take `Nc1ncnc2c1ncn2[C@@H]1O[C@H](COP(=O)(O)OP(=O)(O)O)[C@@H](O)[C@H]1O` [ADP]: the Kd on MAB21L1 [1] was determined as 3.1 µM.

In the case of `Nc1ncnc2c1ncn2[C@@H]1O[C@H](COP(=O)(O)OP(=O)(O)OP(=O)(O)O)[C@@H](O)[C@H]1O` [ATP], the equilibrium dissociation constant (Kd) at MAB21L1 [1] worked out at 0.34 µM.

Regarding `Nc1ccn([C@@H]2O[C@H](COP(=O)(O)OP(=O)(O)OP(=O)(O)O)[C@@H](O)[C@H]2O)c(=O)n1` [CTP], on MAB21L1 [2], the Kd is 0.41 µM.

B1: 50mer ssRNA (ssRNA)
RNA: GGAUACGUAACAACGCUUAUGCAUCGCCCCGCUACAUCCCUGAGCUGAC
Consider B1, for which the “apparent K (half saturation)” value with MAB21L1 [3] stood at 3.3 µM.

B2: 50mer dsRNA (dsRNA)
RNA 1: GGAUACGUAACAACGCUUAUGCAUCGCCCCGCUACAUCCCUGAGCUGAC
RNA 2: GUCAGCUCAGGGAUGUAGCGGGGCGAUGCAUAAGCGUUGUUACGUAUCC
For B2, the “apparent K (half saturation)” value with MAB21L1 [4] was 5 µM.

B3: 50mer ssDNA (ssDNA)
DNA: GGATACGTAACAACGCTTATGCATCGCCCCGCTACATCCCTGAGCTGAC
As to B3, the “apparent K (half saturation)” value with MAB21L1 [3] amounted to 6.7 µM.

B4: 50mer dsDNA (dsDNA)
DNA 1: GGATACGTAACAACGCTTATGCATCGCCCCGCTACATCCCTGAGCTGAC
DNA 2: GTCAGCTCAGGGATGTAGCGGGGCGATGCATAAGCGTTGTTACGTATCC
B4: in the data set with MAB21L1 [4], the “apparent K (half saturation)” value was found to be 6 µM.
